Results as given in the supplement of paper PMC10567573.

B1: FBXO3 (parent)
chain: DEEERRRRVFDVPIRRRRCSRLF
B2: MFF (parent)
chain: MAEISRIQYEMEYTEGISQRMRVP
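Further: lentivirally expressed fusions sorted by FACS into six bins by GFP to DsRed ratio, PSI derived from sequencing read proportions per bin multiplied by bin number.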

Variants of: B1
Test: protein stability index of a GFP-peptide fusion (GPS, HEK-293T) (PSI 1-6); higher = more stable
Details: c terminus: native
Work on DEEERRRRVFDVPIRRRRCWRLF yielded a protein stability index of 2.47. Work on DEEERRRRVFDVPIRRRRCVRLF yielded a protein stability index of 2.06. DEEERRRRVFDVPIRRRRCYRLF gave a protein stability index of 2.22. DEEERRRRVFDVPIRRRRCSRSF gave a protein stability index of 2.17. For DEEERRRRVFDVPIRRRRCSRPF, the protein stability index was 3.85. With DEEERRRRVFDVPIRRRRCSRQF the protein stability index was 1.55. For DEEERRRRVFDVPIRRRRCSRTF, the protein stability index was 2.46. Work on DEEERRRRVFDVPIRRRRCSRIF yielded a protein stability index of 2.82. With DEEERRRRVFDVPIRRRRCSRDF the protein stability index was 4.94. Variant DEEERRRRVFDVPIRRRRCSRFF has a protein stability index of 4.44. Work on DEEERRRRVFDVPIRRRRCSRKF yielded a protein stability index of 4.67. For DEEERRRRVFDVPIRRRRCSRHF, the protein stability index was 2.94. Variant DEEERRRRVFDVPIRRRRCSREF has a protein stability index of 4.92. In the case of DEEERRRRVFDVPIRRRRCSRNF, the protein stability index is reported as 2.09. Variant DEEERRRRVFDVPIRRRRCSRCF has a protein stability index of 2.71. For DEEERRRRVFDVPIRRRRCSRYF, the protein stability index was 2.63. DEEERRRRVFDVPIRRRRCSRWF gave a protein stability index of 3.03. For DEEERRRRVFDVPIRRRRCSRVF, the protein stability index was 2.12. Variant DEEERRRRVFDVPIRRRRCSRGF has a protein stability index of 3.06. Work on DEEERRRRVFDVPIRRRRCSRMF yielded a protein stability index of 2.28. With DEEERRRRVFDVPIRRRRCSRAF the protein stability index was 3.3. Work on DEEERRRRVFDVPIRRRRCSRRF yielded a protein stability index of 3.97. In the case of DEEERRRRVFDVPIRRRRCSRLM, the protein stability index is reported as 2.45. DEEERRRRVFDVPIRRRRCSRLA showed a protein stability index of 1.35. DEEERRRRVFDVPIRRRRCSRLD gave a protein stability index of 2.71. Work on DEEERRRRVFDVPIRRRRCSRLS yielded a protein stability index of 1.03. DEEERRRRVFDVPIRRRRCSRLK showed a protein stability index of 4.1. Work on DEEERRRRVFDVPIRRRRCSRLH yielded a protein stability index of 2.77. For DEEERRRRVFDVPIRRRRCSRLT, the protein stability index was 2.4. Work on DEEERRRRVFDVPIRRRRCSRLV yielded a protein stability index of 3.28. DEEERRRRVFDVPIRRRRCSRLL gave a protein stability index of 4.08. Variant DEEERRRRVFDVPIRRRRCSRLP has a protein stability index of 2.6. For DEEERRRRVFDVPIRRRRCSRLY, the protein stability index was 3.25. DEEERRRRVFDVPIRRRRCSRLQ gave a protein stability index of 2.98. DEEERRRRVFDVPIRRRRCSRLC gave a protein stability index of 2.65. Variant DEEERRRRVFDVPIRRRRCSRLR has a protein stability index of 3.91. For DEEERRRRVFDVPIRRRRCSRLI, the protein stability index was 1.85. With DEEERRRRVFDVPIRRRRCSRLN the protein stability index was 2.48. With DEEERRRRVFDVPIRRRRCSRLG the protein stability index was 2.86. Work on DEEERRRRVFDVPIRRRRCSRLW yielded a protein stability index of 3.56. DEEERRRRVFDVPIRRRRCSGLF gave a protein stability index of 2.36. For DEEERRRRVFDVPIRRRRCSMLF, the protein stability index was 2.87. Work on DEEERRRRVFDVPIRRRRCSLLF yielded a protein stability index of 2.6. With DEEERRRRVFDVPIRRRRCSWLF the protein stability index was 2.53. In the case of DEEERRRRVFDVPIRRRRCSVLF, the protein stability index is reported as 2.98. Work on DEEERRRRVFDVPIRRRRCSDLF yielded a protein stability index of 3.91. DEEERRRRVFDVPIRRRRCSTLF gave a protein stability index of 3.85. Variant DEEERRRRVFDVPIRRRRCSNLF has a protein stability index of 3.99. Variant DEEERRRRVFDVPIRRRRCSCLF has a protein stability index of 4.79. Variant DEEERRRRVFDVPIRRRRCSQLF has a protein stability index of 3.62. In the case of DEEERRRRVFDVPIRRRRCSHLF, the protein stability index is reported as 3.59. DEEERRRRVFDVPIRRRRCSPLF showed a protein stability index of 2.72. Variant DEEERRRRVFDVPIRRRRCSILF has a protein stability index of 2.93. DEEERRRRVFDVPIRRRRCSSLF gave a protein stability index of 4.35. Work on DEEERRRRVFDVPIRRRRCSFLF yielded a protein stability index of 3.04. DEEERRRRVFDVPIRRRRCSYLF gave a protein stability index of 3.08. Work on DEEERRRRVFDVPIRRRRCSELF yielded a protein stability index of 3.46. DEEERRRRVFDVPIRRRRCSALF gave a protein stability index of 4.48. For DEEERRRRVFDVPIRRRRCSKLF, the protein stability index was 3.27.

Variants of: B2
Test: as above
Details: c terminus: a fixed tail appended
For MAEISRIQYEMEYTEGISVRMRVP, the protein stability index was 1.62. MAEISRIQYEMEYTEGISKRMRVP gave a protein stability index of 2.44. Work on MAEISRIQYEMEYTEGISCRMRVP yielded a protein stability index of 2.41. With MAEISRIQYEMEYTEGISPRMRVP the protein stability index was 2.77. For MAEISRIQYEMEYTEGISQPMRVP, the protein stability index was 2.73. MAEISRIQYEMEYTEGISQQMRVP gave a protein stability index of 2.3. Work on MAEISRIQYEMEYTEGISQAMRVP yielded a protein stability index of 2.01. MAEISRIQYEMEYTEGISQEMRVP showed a protein stability index of 3.1. Variant MAEISRIQYEMEYTEGISQMMRVP has a protein stability index of 2.13. MAEISRIQYEMEYTEGISQCMRVP gave a protein stability index of 2.41. MAEISRIQYEMEYTEGISQIMRVP gave a protein stability index of 2.05. In the case of MAEISRIQYEMEYTEGISQKMRVP, the protein stability index is reported as 2.72. MAEISRIQYEMEYTEGISQLMRVP gave a protein stability index of 2.1. Variant MAEISRIQYEMEYTEGISQYMRVP has a protein stability index of 1.58. Work on MAEISRIQYVMEYTEGISQRMRVP yielded a protein stability index of 1.89. MAEISRIQYSMEYTEGISQRMRVP showed a protein stability index of 2.74. In the case of MAEISRIQYWMEYTEGISQRMRVP, the protein stability index is reported as 2.72. MAEISEIQYEMEYTEGISQRMRVP showed a protein stability index of 3.42. Variant MAEISIIQYEMEYTEGISQRMRVP has a protein stability index of 1.63. Work on MAEISGIQYEMEYTEGISQRMRVP yielded a protein stability index of 3.36. In the case of MAEISHIQYEMEYTEGISQRMRVP, the protein stability index is reported as 3. MAEISMIQYEMEYTEGISQRMRVP showed a protein stability index of 2.41. In the case of MAEISFIQYEMEYTEGISQRMRVP, the protein stability index is reported as 2.06. MAEISRIQYEMEYTEGISQRNRVP gave a protein stability index of 3.32. MAEISRIQYEMEYTEGISQRQRVP gave a protein stability index of 3.12. For MAEISRIQYEMEYTEGISQRFRVP, the protein stability index was 2.38. Work on MAEISRIQYEMEYTEGISQRARVP yielded a protein stability index of 3.17. Variant MAEISRIQYEMEYTEGISQRGRVP has a protein stability index of 3.62. Variant MAEISRIQYEMEYTEGISQRTRVP has a protein stability index of 3.33. For MPEISRIQYEMEYTEGISQRMRVP, the protein stability index was 3.33. MNEISRIQYEMEYTEGISQRMRVP gave a protein stability index of 3.09. Variant MSEISRIQYEMEYTEGISQRMRVP has a protein stability index of 2.5. MVEISRIQYEMEYTEGISQRMRVP showed a protein stability index of 1.96. Work on MDEISRIQYEMEYTEGISQRMRVP yielded a protein stability index of 2.83. For MMEISRIQYEMEYTEGISQRMRVP, the protein stability index was 2.03. For MQEISRIQYEMEYTEGISQRMRVP, the protein stability index was 2.76.
